Laboratory results taken from patent US20070128627A1 (US Dept. of Health and Human Services, published 2007).

Tests used:
VP16/GR = target: T1, VP16/GR (UniProt P06536 1-795); assay: mammalian two-hybrid ±1 µM Dex (FIG. 6B)
T1 construct: Assayed with and without 1 µM Dex
T1 sequence: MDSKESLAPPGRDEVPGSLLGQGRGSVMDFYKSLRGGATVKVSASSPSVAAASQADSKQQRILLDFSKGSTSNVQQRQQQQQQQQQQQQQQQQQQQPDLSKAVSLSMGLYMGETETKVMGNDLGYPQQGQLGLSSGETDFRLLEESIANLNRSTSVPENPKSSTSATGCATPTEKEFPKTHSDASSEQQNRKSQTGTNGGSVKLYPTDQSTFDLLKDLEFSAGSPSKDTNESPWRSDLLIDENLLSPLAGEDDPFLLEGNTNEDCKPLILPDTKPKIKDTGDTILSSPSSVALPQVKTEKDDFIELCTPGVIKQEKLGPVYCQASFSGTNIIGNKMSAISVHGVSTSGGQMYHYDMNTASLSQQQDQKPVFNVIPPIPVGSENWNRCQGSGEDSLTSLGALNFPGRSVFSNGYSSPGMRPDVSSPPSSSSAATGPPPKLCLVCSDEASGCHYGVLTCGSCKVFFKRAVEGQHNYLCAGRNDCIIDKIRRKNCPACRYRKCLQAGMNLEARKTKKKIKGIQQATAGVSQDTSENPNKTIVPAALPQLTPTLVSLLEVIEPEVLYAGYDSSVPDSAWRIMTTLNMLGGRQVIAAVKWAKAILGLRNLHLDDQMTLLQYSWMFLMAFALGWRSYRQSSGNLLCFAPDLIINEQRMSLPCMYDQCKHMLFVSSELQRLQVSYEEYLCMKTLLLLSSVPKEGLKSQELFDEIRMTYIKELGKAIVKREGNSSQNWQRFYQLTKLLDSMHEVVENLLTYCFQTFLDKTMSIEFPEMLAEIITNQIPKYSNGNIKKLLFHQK

VP16/TIF2.4 = target: T2, VP16/TIF2.4 (human, UniProt Q15596 624-1010); assay: mammalian two-hybrid in CV-1 cells, relative luciferase activity (FIG. 6A)
T2 construct: Only the TIF2.4 fragment is present; The text gives no limits for it, so the whole TIF2 entry is named
T2 sequence: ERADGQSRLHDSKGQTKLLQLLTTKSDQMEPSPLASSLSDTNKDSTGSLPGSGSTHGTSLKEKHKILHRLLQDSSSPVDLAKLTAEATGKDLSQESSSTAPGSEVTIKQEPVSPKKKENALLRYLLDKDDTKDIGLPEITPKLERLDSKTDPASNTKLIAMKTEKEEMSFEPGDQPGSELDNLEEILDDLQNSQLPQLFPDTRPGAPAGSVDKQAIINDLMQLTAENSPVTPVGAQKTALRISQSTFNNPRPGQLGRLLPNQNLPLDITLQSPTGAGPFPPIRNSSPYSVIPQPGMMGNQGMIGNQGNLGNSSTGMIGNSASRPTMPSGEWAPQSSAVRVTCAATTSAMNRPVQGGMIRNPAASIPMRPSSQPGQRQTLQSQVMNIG
Description: Triplicate samples of CV-1 cells were transiently transfected with VP16 or VP16/TIF2.4 in FIG. 6A experiments. […] After determining the relative luciferase activities as described in FIG. 2B and 2C, the average values±S.E.M. from 2-5 experiments were plotted.

B1: GAL/STAMP(623-834) (other)
chain: MKLLSSIEQACDICRLKKLKCSKEKPKCAKCLKNNWECRYSPKTKRSPLTRAHLTEVESRLERLEQLFLLIFPREDLDMILKMDSLQDIKALLTGLFVQDNVNKDAVTDRLASVETDMPLTLRQHRISATSSSEESSNKGQRQLTVSENTPKENSMKVREWNNKGGHCCKLETQELEPKFNLMQILQDNGNLSKMQARIAFSAYLQHVQIRLMKDSGGQTFSASWAAKEDEQMELVVRFLKRASNNLQHSLRMVLPSRRLALLERRRILAHQLGDFIIVYNKETEQMAEKKSKKKVEEEEEDGVNMENFQEFIRQASEAELEEVLTFYTQKNKSASVFLGTHSKISKNNNNYSDSGAKG
notes: domain: GAL-DBD; Expressed in CV-1 cells for the mammalian two-hybrid assay; also called Gal/6-6CL1
binding result (VP16/GR): no binding
average fold increase above the VP16 control (VP16/TIF2.4): 11 fold
